Biological target: the molecule itself
Assay: zonal velocity sedimentation in a glycerol gradient

B1: CshA-His6 (natural protein, S. aureus, UniProt Q2FWH5 1-506, looked up)
chain: MQNFKELGISDNTVQSLESMGFKEPTPIQKDSIPYALQGIDILGQAQTGTGKTGAFGIPLIEKVVGKQGVQSLILAPTRELAMQVAEQLREFSRGQGVQVVTVFGGMPIERQIKALKKGPQIVVGTPGRVIDHLNRRTLKTDGIHTLILDEADEMMNMGFIDDMRFIMDKIPAVQRQTMLFSATMPKAIQALVQQFMKSPKIIKTMNNEMSDPQIEEFYTIVKELEKFDTFTNFLDVHQPELAIVFGRTKRRVDELTSALISKGYKAEGLHGDITQAKRLEVLKKFKNDQINILVATDVAARGLDISGVSHVYNFDIPQDTESYTHRIGRTGRAGKEGIAVTFVNPIEMDYIRQIEDANGRKMSALRPPHRKEVLQAREDDIKEKVENWMSKESESRLKRISTELLNEYNDVDLVAALLQELVEANDEVEVQLTFEKPLSRKGRNGKPSGSRNRNSKRGNPKFDSKSKRSKGYSSKKKSTKKFDRKEKSSGGSRPMKGRTFADHQK
Question: How did the “stoichiometry N” value turn out when B1 was run?
Answer: Its value is 2.
